First the molecules themselves.
B1: GGGAGGACGAUGCGGGGAGGUUAUUACAGAGUCUGUAUAGCUGUACUCCCAGACGACUCGCCCGA (nucleic acid)
chain: rGrGrGrArGrGrAfCrGrAfUrGfCrGrGrGrGrArGrGfUfUrAfUfUrAfCrArGrArGfUfCfUrGfUrAfUrArGfCfUrGfUrAfCfUfCfCfCrArGrAfCrGrAfCfUfCrGfCfCfCrGrA
B2: GGGAGGACGAUGCGGACAGAGUAUUAUAGAGUAUGUAUAGCUAUACUGUCCAGACGACUCGCCCGA (nucleic acid)
chain: rGrGrGrArGrGrAfCrGrAfUrGfCrGrGrAfCrArGrArGfUrAfUfUrAfUrArGrArGfUrAfUrGfUrAfUrArGfCfUrAfUrAfCfUrGfUfCfCrArGrAfCrGrAfCfUfCrGfCfCfCrGrA
modifications: aptamer
B3: GGGAGGACGAUGCGGUGAGAGUAUUAUAGAGUCUGUAUAGCUAUACUCGCCAGACGACUCGCCCGA (nucleic acid)
chain: rGrGrGrArGrGrAfCrGrAfUrGfCrGrGfUrGrArGrArGfUrAfUfUrAfUrArGrArGfUfCfUrGfUrAfUrArGfCfUrAfUrAfCfUfCrGfCfCrArGrAfCrGrAfCfUfCrGfCfCfCrGrA
modifications: aptamer
B4: GGGAGGACGAUGCGGGACAGAGUAUUAUAGAGUAUGUAUAGCUAUACUGUCAGACGACUCGCCCGA (nucleic acid)
chain: rGrGrGrArGrGrAfCrGrAfUrGfCrGrGrGrAfCrArGrArGfUrAfUfUrAfUrArGrArGfUrAfUrGfUrAfUrArGfCfUrAfUrAfCfUrGfUfCrArGrAfCrGrAfCfUfCrGfCfCfCrGrA
modifications: aptamer
B5: GGGAGGACGAUGCGGUGUGAGUAUUAUAGAGUCUGUAUAGCUAUACCACCAGACGACUCGCCCGA (nucleic acid)
chain: rGrGrGrArGrGrAfCrGrAfUrGfCrGrGfUrGfUrGrArGfUrAfUfUrAfUrArGrArGfUfCfUrGfUrAfUrArGfCfUrAfUrAfCfCrAfCfCrArGrAfCrGrAfCfUfCrGfCfCfCrGrA
modifications: aptamer
B6: GGGAGGACGAUGCGGACAGAGUAUUAUAGAGUAUGUAUAGCUAUACUGUCAGACGACUCGCCCGA (nucleic acid)
chain: rGrGrGrArGrGrAfCrGrAfUrGfCrGrGrAfCrArGrArGfUrAfUfUrAfUrArGrArGfUrAfUrGfUrAfUrArGfCfUrAfUrAfCfUrGfUfCrArGrAfCrGrAfCfUfCrGfCfCfCrGrA
modifications: aptamer
B7: GGGAGGACGAUGCGGAGGGAUUAUUAUAGAGUCUGUAUAGCUAUACCCUCAGACGACUCGCCCGA (nucleic acid)
chain: rGrGrGrArGrGrAfCrGrAfUrGfCrGrGrArGrGrGrAfUfUrAfUfUrAfUrArGrArGfUfCfUrGfUrAfUrArGfCfUrAfUrAfCfCfCfUfCrArGrAfCrGrAfCfUfCrGfCfCfCrGrA
modifications: aptamer
B8: GGGAGGACGAUGCGGAUAGAGUAUUAUAGAGUAUGUAUAGCUAUACUAUCAGACGACUCGCCCGA (nucleic acid)
chain: rGrGrGrArGrGrAfCrGrAfUrGfCrGrGrAfUrArGrArGfUrAfUfUrAfUrArGrArGfUrAfUrGfUrAfUrArGfCfUrAfUrAfCfUrAfUfCrArGrAfCrGrAfCfUfCrGfCfCfCrGrA
modifications: aptamer
B9: GGGAGGACGAUGCGGUGAGAGUAUUAUAGAGUCUGUAUAGCUAUACCACCAGACGACUCGCCCGA (nucleic acid)
chain: rGrGrGrArGrGrAfCrGrAfUrGfCrGrGfUrGrArGrArGfUrAfUfUrAfUrArGrArGfUfCfUrGfUrAfUrArGfCfUrAfUrAfCfCrAfCfCrArGrAfCrGrAfCfUfCrGfCfCfCrGrA
modifications: aptamer

We go through nine molecules from patent US20040253243A1, “Aptamer therapeutics useful in ocular pharmacotherapy” (priority 2003, published 2004).

Strand notation (5' to 3'): a small letter for the sugar, then the base; units joined by * are phosphorothioate-linked, units joined directly phosphodiester-linked; [ ] holds rarer units or linkages, { } end groups; capitals alone tell only the bases. r = 2'-OH (RNA); f = 2'-fluoro

In one data set the target is T1, TGFβ2 (Homo sapiens, UniProt P61812).
T1 construct: For bio-chemical characterization of these aptamers, two forms of mature TGFβ2 were generated, native and N-terminal his-tagged versions, in E. coli
T1 sequence (P61812 303-414 limits assumed): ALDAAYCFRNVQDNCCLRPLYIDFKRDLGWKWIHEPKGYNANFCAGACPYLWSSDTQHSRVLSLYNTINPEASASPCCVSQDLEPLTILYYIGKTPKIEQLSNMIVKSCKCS
Put plainly: Dot blot binding of doped reselection aptamers to TGFβ2. As to conditions: CW128_103. How it is done: TGFβ2 was serially diluted in DPBS containing 0.2 mg/ml BSA and 0.2 mg/ml tRNA. ^32P-labeled RNA (<20 pM) were incubated with TGFβ2 at room temperature for 30 min. Samples were pipetted with a multichannel pippetor onto a multiwell manifold holding layers of pre-wetted 0.45 micron nitrocellulose, hybond membrane, 3MM filter paper (the order is from top to bottom), aspirated, and washed 3× with DPBS (containing tRNA). All three filters were air dried, exposed to phosphorimager plate, analyzed by ImageQuant.
B1 came in with a Kd of 0.75 nM.

As to B2, the Kd amounted to 0.53 nM.

In another data set the target is T1, TGFβ2. The data set can be described thus: Binding data as performed in MLEC inhibition assay CW115-95, 117, 129. Format: cell-based. As to conditions: full-length aptamer sequences; experiment 129. How it is done: MLEC Assay. The mink lung epithelial cell proliferation assay is performed over two days. On day 1:1) media is aspirated off from Mink Lung Epithelial Cells (MLEC); 2) the MLEC are washed with 10 ml 1×PBS; 3) 3 ml Trypsin is added and Trypsinize for 3 min at 37° C.; 4) quench with 10 ml 0.5% FBS media; 5) spin at 1000 rpm for 3.30 min; 6) aspirate off supernatant; 7) resuspend pellet in 10 ml 0.5% FBS media; 8) Count 10 μl cell suspension; 9) adjust cell density to 80,000 cells/ml; 10) add 50 μl of cells/well to black bottomed 96-well plates (4000 cells/well); pipet up and down during plating process to avoid settling of cells and uneven plating; 11) incubate cells at 37° C. in 5% CO2 for 4 hrs to allow adherence of cells; 12) add 25 μl of aptamer (or media, or other test reagent, such as for example, an antibody), preferably the outer wells are not used for treated cells; 13) add 25 μl of TGFβ2 (typically 25 pg/ml); and 14) incubate cells at 37° C. in 5% CO2 overnight.
On day 2:1) mix 20 μl BrdU with 2 ml 0.5% FBS media; 2) add 10 μl of BrdU mixture/well; 3) incubate cells at 37° C. in 5% CO2 for 3 hrs; 4) remove media and blot plates dry on paper towels; 5) add 200 μl/well FixDenat solution and incubate for 30 min at room temperature (RT); 6) remove FixDenat solution and blot plates dry on paper towels; 7) add 100 μl /well anti-BrdU POD solution and incubate for 90 min at RT; 8) remove anti-BrdU POD solution and blot plates dry on paper towels; 9) wash plates 3× with […] washing solution with 5 min RT incubations and blot plates dry on paper towels; 10) add 100 μl /well substrate solution and incubate for 3 min at RT in dark; and 11) read plates using PSP Luciferace 1 program on TopCount (Packard Bioscience Co., Downers Grove, Ill.).
B3 registered an IC50 of 6.5 nM.

As to B4, the IC50 was found to be 12.1 nM.

With B5, the IC50 worked out at 7.4 nM.

Take B2: the IC50 came out at 5.2 nM.

The molecule B6 returned an IC50 of 14.5 nM.

Regarding B7, the IC50 is 5.3 nM.

In turn, B8 displayed an IC50 of 17.9 nM.

In the case of B9, the IC50 is 8 nM.

Broadly, the Kd is the concentration at which binding is half-saturated. Higher therefore signals a looser complex. Usually IC50 stands for the concentration at which inhibition is half-maximal.
